The record followed here is patent publication US20220048996A1 (F STAR BETA, published 2022).

Assay [1] deals with T1, hFcγR1 (R&D Systems 1257-FC-050/CF) (human, UniProt P12314 16-288).
T1 construct: Bought; also called FcγRI
Description: SPR, antibody 100 nM on OX40-his chip co-injected with FcγR 500 nM. How it is done:
(§1) Binding was tested on a Biacore 3000 instrument (GE Healthcare). Human OX40 (BPS Bioscience cat no 71310) and human CD137 (produced in house) biotinylated his-tagged antigens were coated onto an SA chip (GE Healthcare cat no BR100398) at 2 μM concentration. Human OX40 and human CD137 were coated on separate flow cells, while another flow cell was left blank for background subtraction. Regeneration conditions were determined to be 12 μl aqueous 10 mM glycine-HCl at pH2.0 at 20 μl/min flow rate. Antibodies (see Table 8) and human FcγRs (see Table 8) were diluted to 100 nM (antibodies) or 500 nM (human FcγRs) in HBS-P (0.01 M HEPES pH 7.4, 0.15 M NaCl, 0.005% v/v Surfactant P20, GE Healthcare, BR-1003-68) and co-injected at 20 μl/min flow rate and the dissociation was followed for 5 min.
(§2) Data analysis was performed with BiaEvaluation software version 3.2 RC1 by referencing against the blank flow cell and aligning the curves after the association of the antibody. Values for binding response at the end of the association phase were generated by subtracting the […] to normalize the effect of the antibody binding to the OX40 and CD137 receptors.
For orientation: SPR reads the build-up and loss of mass on a sensor chip optically.

The target of assay [2] is T2, hFcγR2a (R&D Systems 1330-CD-050/CF) (human, UniProt P12318 36-218, limits assumed).
T2 construct: Bought; also called FcγRIIa
T2 sequence (looked up): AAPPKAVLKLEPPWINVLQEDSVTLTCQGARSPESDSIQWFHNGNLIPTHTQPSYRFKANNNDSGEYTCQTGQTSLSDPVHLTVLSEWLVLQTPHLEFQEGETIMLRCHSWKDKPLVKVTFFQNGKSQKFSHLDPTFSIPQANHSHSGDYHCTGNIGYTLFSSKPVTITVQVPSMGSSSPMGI
Described as above. How it is done: as §1, §2

The target of assay [3] is T3, hFcγR3a (R&D Systems 4325-FC-050/CF) (human, UniProt P08637 17-208).
T3 construct: Bought; In the ADCC bioassay FcγRIIIa stood on engineered Jurkat cells; also called FcγRIIIa
Described as above. As to the method: as §1, §2

The target in assay [4] is T4, hFcγR2b (R&D Systems 1460-CD-050/CF) (human, UniProt P31994 46-217, limits assumed).
T4 construct: Bought; also called FcγRIIb
T4 sequence (looked up): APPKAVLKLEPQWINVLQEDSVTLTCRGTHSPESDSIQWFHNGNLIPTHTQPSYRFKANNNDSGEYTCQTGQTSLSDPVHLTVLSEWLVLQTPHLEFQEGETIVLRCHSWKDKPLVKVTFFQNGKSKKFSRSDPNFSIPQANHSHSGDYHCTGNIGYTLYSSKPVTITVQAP
The assay is described as above. As to the method:
as §1, §2

Assay [5] deals with T5, human OX40 expressed on DO11.10 cells (DO11.10-hOX40) (human, UniProt P43489 29-277).
T5 construct: Also used here for OX40 on primary human T cells in the functional rows; also called human OX40 receptor; OX40 on human T cells
T5 sequence: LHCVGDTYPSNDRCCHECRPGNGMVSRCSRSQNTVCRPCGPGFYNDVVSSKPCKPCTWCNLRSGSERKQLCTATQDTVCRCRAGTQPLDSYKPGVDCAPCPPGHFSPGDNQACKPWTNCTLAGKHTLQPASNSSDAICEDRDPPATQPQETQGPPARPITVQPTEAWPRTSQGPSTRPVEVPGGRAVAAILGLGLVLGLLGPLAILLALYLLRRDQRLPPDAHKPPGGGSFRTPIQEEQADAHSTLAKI
Kind of assay: flow cytometry on DO11.10 cells expressing the target, mean ± SD of three experiments. How it is done: (§3) 50 μl of the antibody dilutions were added to the wells containing cells (final volume 100 μl) and incubated at 4° C. for 1 hour. […] The plates were washed and resuspended in 100 μl of PBS containing DAPI (Biotium, cat no 40043) at 1 μg/ml. The plates were analysed using a Canto II flow cytometer (BD Bioscience) and the data analysed using FlowJo. Dead cells were identified by their higher fluorescence on the UV (405 nm/450/50) channel and excluded from analysis. […] The GMFI data was fit using log (agonist) vs response (three parameters) in Graph Pad Prism Software to generate EC₅₀ values.
(§4) However, in this experiment, instead of using HEK cells to analyse the non-specific binding, non-transduced DO11.10 cells were used. […] The experiment was repeated three times to increase the reliability of the EC₅₀ values calculated.
(In flow cytometry, cells or beads pass a laser one at a time.)

Assay [6] deals with T6, cynomolgus OX40 expressed on DO11.10 cells (DO11.10-cOX40) (cynomolgus, UniProt P43489 29-277 (human entry)).
T6 chain: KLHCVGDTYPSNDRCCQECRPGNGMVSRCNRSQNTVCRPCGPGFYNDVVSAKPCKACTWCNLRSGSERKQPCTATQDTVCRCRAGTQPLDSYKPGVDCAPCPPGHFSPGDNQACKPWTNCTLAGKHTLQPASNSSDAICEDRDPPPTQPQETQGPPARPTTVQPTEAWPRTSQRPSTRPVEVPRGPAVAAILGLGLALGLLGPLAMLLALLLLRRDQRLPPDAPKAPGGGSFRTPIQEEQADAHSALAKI
The description is as above. As to the method:
as §3, §4

For assay [7], the target named is T7, cynomolgus CD137 expressed on DO11.10 cells (DO11.10-cCD137) (cynomolgus monkey, UniProt Q07011 24-255 (human entry)).
T7 chain: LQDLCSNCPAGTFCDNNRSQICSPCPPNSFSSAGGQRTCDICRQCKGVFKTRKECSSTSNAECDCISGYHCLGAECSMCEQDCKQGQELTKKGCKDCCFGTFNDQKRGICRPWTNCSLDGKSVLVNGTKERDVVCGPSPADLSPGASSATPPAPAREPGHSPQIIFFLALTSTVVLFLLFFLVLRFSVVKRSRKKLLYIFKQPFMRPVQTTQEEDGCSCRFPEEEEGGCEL
The assay is described as above. How it is done:
as §3, §4

The target of assay [8] is T8, human CD137 expressed on DO11.10 cells (DO11.10-hCD137) (human, UniProt Q07011 24-255).
T8 construct: also called CD137 on human T cells
The description is as above. As to the method: as §3, §4

T1 sequence (P12314 16-288 limits assumed): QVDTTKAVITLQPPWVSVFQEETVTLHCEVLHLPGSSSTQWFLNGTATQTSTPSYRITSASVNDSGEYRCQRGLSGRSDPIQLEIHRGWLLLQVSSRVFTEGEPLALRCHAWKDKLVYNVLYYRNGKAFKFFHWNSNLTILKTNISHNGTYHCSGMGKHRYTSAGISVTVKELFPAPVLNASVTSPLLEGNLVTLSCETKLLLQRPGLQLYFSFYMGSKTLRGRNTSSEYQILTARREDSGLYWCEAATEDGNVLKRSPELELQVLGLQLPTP
T3 sequence (P08637 17-208 limits assumed): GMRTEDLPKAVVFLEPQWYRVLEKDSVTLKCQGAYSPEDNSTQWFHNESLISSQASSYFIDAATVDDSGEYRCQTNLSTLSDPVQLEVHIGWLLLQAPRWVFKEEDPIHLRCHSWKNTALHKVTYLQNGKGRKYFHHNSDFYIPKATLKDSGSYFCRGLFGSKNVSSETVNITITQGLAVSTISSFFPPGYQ
T8 sequence (Q07011 24-255): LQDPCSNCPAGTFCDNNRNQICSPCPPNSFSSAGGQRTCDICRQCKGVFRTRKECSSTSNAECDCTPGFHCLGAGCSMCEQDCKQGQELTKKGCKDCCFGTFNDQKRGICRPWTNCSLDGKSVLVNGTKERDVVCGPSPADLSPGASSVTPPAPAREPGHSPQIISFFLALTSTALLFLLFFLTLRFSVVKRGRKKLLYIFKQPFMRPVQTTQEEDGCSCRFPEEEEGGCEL

B1: FS20-22-49AA/FS30-10-16 (bispecific antibody, human IgG1, kappa, L234A L235A)
heavy: EVQLLESGGGLVQPGGSLRLSCAASGFTFSSYDMSWVRQAPGKGLEWVSDIDPTGSKTDYADSVKGRFTISRDNSKNTLYLQMNSLRAEDTAVYYCARDLLVYGFDYWGQGTLVTVSSASTKGPSVFPLAPSSKSTSGGTAALGCLVKDYFPEPVTVSWNSGALTSGVHTFPAVLQSSGLYSLSSVVTVPSSSLGTQTYICNVNHKPSNTKVDKKVEPKSCDKTHTCPPCPAPEAAGGPSVFLFPPKPKDTLMISRTPEVTCVVVDVSHEDPEVKFNWYVDGVEVHNAKTKPREEQYNSTYRVVSVLTVLHQDWLNGKEYKCKVSNKALPAPIEKTISKAKGQPREPQVYTLPPSRDEYWDQEVSLTCLVKGFYPSDIAVEWESNGDEQFAYKTTPPVLDSDGSFFLYSKLTVDQYRWNPADYFSCSVMHEALHNHYTQKSLSLSPG
light: EIVLTQSPGTLSLSPGERATLSCRASQSVSSSYLAWYQQKPGQAPRLLIYGASSRATGIPDRFSGSGSGTDFTLTISRLEPEDFAVYYCQQSYSYPVTFGQGTKVEIKRTVAAPSVFIFPPSDEQLKSGTASVVCLLNNFYPREAKVQWKVDNALQSGNSQESVTEQDSKDSTYSLSSTLTLSKADYEKHKVYACEVTHQGLSSPVTKSFNRGEC
notes: IgG1 with LALA; also called OX40/CD137 mAb^2; copies: 2 + 2
One may read the EC50 as the concentration needed to bring the measured effect to its halfway point. In the case of B1, the “binding response at end of association phase of FcγR” value in assay [1] is 238 RU; in assay [2], 37.4 RU; in assay [3] it was 31.4 RU; in assay [4], 34.3 RU. In addition, the half-maximal effective concentration (EC50) in assay [5] stood at 0.22 nM; in assay [6], 0.71 nM; in assay [7], 0.12 nM; in assay [8] it was 0.11 nM.
